This assay concerns the target human SNAP-tagged GLP-1R (glucagon-like peptide-1 receptor) on HEK293-SNAP-GLP-1R cells (human) (UniProt P43220). The assay is described as follows: FRET or BRET. Background: Bioluminescence resonance energy transfer reports proximity on the nanometre scale.
UniProt P43220, sequence (P43220 24-463): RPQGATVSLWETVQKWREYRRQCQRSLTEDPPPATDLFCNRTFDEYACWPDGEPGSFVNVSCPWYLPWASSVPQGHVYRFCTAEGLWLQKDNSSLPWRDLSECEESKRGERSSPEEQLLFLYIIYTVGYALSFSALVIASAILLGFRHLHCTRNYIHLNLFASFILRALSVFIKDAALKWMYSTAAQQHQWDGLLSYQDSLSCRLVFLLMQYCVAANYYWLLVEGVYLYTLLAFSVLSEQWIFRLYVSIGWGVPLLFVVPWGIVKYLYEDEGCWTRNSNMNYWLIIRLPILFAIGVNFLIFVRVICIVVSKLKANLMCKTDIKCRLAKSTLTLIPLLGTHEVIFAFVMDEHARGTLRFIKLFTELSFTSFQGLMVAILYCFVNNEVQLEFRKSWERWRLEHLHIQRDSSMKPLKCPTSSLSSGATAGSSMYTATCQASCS

For the substance “exendin-4 (from UniProt P26349 48-87) (peptide)”, the log Kd is -9.2.
Next, lixisenatide (peptide): -9.
